Experimental data taken from patent US20230001013A1, “STABLE MONOMERIC INSULIN FORMULATIONS ENABLED BY SUPRAMOLECULAR PEGYLATION OF INSULIN ANALOGUES” (THE BOARD OF TRUSTEES OF THE LELAND STANFORD JUNIOR …, priority 2019, published 2023).

Legend:
[1] = Insulin association state by SEC-MALS; type: physicochemical; conditions: for monomer / number average molecular weight (MW): zinc-free
Text: Excipient choice is important, because as in the case of Apidra (glulisine), the absence of zinc is not sufficient to result in an ultra-fast acting insulin formulation. To engineer an insulin formulation that promotes the monomer state, the effects of excipients on insulin association state under zinc-free conditions must be understood. Characterization by size exclusion chromatography with multiple angle light scattering (SEC-MALS) allows us to determine insulin molecular weight in formulation and estimate the fraction of hexamers, dimers and monomers under formulation conditions. […] To select for a mostly monomeric insulin formulation, we evaluated the effect of tonicity agents and preservatives on insulin association state.
Number-averaged molecular weight (MW) and dispersity (Ð=Mw/Mn) of formulations were obtained using size exclusion chromatography (SEC) carried out using a Dionex Ultimate 3000 instrument (including pump, autosampler, and column compartment) outfitted with a Dawn Heleos II Multi Angle Ligh Scattering detector, and a Optilab rEX refractive index detector. The column was a Superose 6 Increase 10/300 GL from GE healthcare. Data was analyzed using Astra 6.0 software.
Controls consisted of either (v) commercial Humalog formulation comprising glycerol (1.6%), meta-cresol (0.315%), dibasic sodium phosphate (0.188%), and zinc (0.00197%), or (vi) commercial Novolog formulation comprising glycerol (1.6%), meta-cresol (0.172%), phenol (0.15%), sodium chloride (0.058%), dibasic sodium phosphate (0.125%), and zinc (0.00196%). Insulin lispro and aspart were injected at a concentration of a minimum […] protein and a volume of 100 μL. A do/dc of 0.186 mL/g was used for all samples.
The molar fraction of monomeric, dimeric and hexameric insulin was determined by fitting experimentally derived number-averaged (Mn) and weight-averaged (Mw) molecular weights determined by SEC-MALS to Equation 1 and Equation 2, where m, d and h, respectively, represent the molar fractions of monomeric, dimeric and hexameric insulin while I represents the molecular weight of monomeric insulin (5831 g/mol). The solver was constrained so that m+d+h=1 while m, d and h remain between 0 and 1.

insulin aspart = insulin aspart (Homo sapiens, UniProt P01308, P52D); test: Acridine orange dye displacement competitive binding assay; conditions: unmodified CB[7], AO displacement, one-site competitive binding model; read-out: binding affinity
Description: Unmodified CB[7] was purchased from Strem Chemicals and Acridine Orange (AO) was purchased from Sigma-Aldrich. Binding of CB[7] to aspart was assessed using the AO dye displacement assay, as previously described. Briefly, 6 μM of CB[7] and 8 μM AO were combined with 100 μL of aspart samples. Aspart samples were diluted to concentrations of 0, 0.01, 0.1, 0.3, 0.5, 1, 1.5, 2, 3, 4 μm in H2O. Samples were incubated overnight in light-free conditions, and fluorescent spectra were collected on an BioTek SynergyH1 microplate reader, exciting at 485 nm and collecting the resulting fluorescent spectra from 495 to 650 nm. The decay in the peak of AO fluorescent signal was fit to a one-site competitive binding model (GraphPad Prism, version 6.0), using the CB[7]·AO equilibrium constant reported previously (Keq=2×10^5 M^−1), to determine binding constants of unmodified CB[7] to insulin.

[2] = reported previously; cited from earlier work
[3] = target: N-terminal phenylalanine on insulin (Homo sapiens, UniProt P01308); test: Host-guest binding of CB[7]-PEG to insulin
Description: Referring to FIGS. 1A and 1B, existing insulin formulations contain a mixture of hexamers, dimers and monomers, which, upon subcutaneous injection, dissociate and are absorbed at different rates, shown diagrammatically in FIG. 1A. Non-covalent PEGylation is enabled by the strong specific binding between CB[7]-PEG and the N-terminal phenylalanine on insulin (KD=0.5 μM). Under high concentrations in formulation insulin will be greater than 98% bound, but after dilution upon subcutaneous injection less than 1% of CB[7]-PEG will remain associated with insulin. This differential absorption results in the rapid onset but long duration of action of these formulations, as indicated in the activity curve in FIG. 1B. […] The formulations described herein are directed to this objective.

[4] = phosphate buffer (pH=7.4), glycerol (2.6%)
[5] = phosphate buffer (pH=7.4), sodium chloride (0.9%)
[6] = phosphate buffer, glycerol (2.6%) and meta-cresol (0.315%)
[7] = phosphate buffer, glycerol (2.6%) and phenoxyethanol (0.85%)

Row | Substance | monomer [1, 4] [%] | number average molecular weight (MW) [1, 4] [kDa] | monomer [1, 5] [%] | number average molecular weight (MW) [1, 5] [kDa] | monomer [1, 6] [%] | number average molecular weight (MW) [1, 6] [kDa] | monomer [1, 7] [%] | number average molecular weight (MW) [1, 7] [kDa] | further results
1 | Zinc free insulin: zinc free insulin in pure water |  |  |  |  |  |  |  |  | association state ([1]; in pure water): completely monomeric
2 | cucurbit[7]uril [CB[7]] |  |  |  |  |  |  |  |  | Kd (insulin aspart): 540 nM; Keq [2]: 200000 M⁻¹
3 | cucurbit[7]uril-poly(ethylene glycol) [CB[7]-PEG] |  |  |  |  |  |  |  |  | Kd [3]: 500 nM; CB[7]-PEG remaining associated with insulin ([3]; after dilution following subcutaneous administration): less than 1%; fraction bound (CB[7]-PEG/insulin complex) ([3]; typical (high) formulation concentrations): greater than 98%
4 | insulin aspart | 91.4 | 7.4 | 4.8 | 13 | 71.0 | 9.4 | 85.2 | 7.4 | 
5 | insulin lispro | 89.2 | 7.6 | 55.0 | 8.7 | 56.7 | 9.0 | 71.5 | 8.2 | 
